{
  "source": "patent US20190382483A1",
  "about": "(OSE IMMUNOTHERAPEUTICS, published 2019)",
  "binders": {"B1": {"name": "Kwar23 (antibody, V domains shown)", "VH": "EVQLQQSGAELVKPGASVKLSCTASGFNIKDYYIHWVQQRTEQGLEWIGRIDPEDGETKYAPKFQDKATITADTSSNTAYLHLSSLTSEDTAVYYCARWGAYWGQGTLVTVSS", "VL": "QIVLTQSPAIMSASPGEKVTLTCSASSSVSSSYLYWYQQKPGSSPKLWIYSTSNLASGVPARFSGSGSGTSYSLTISSMEAEDAASYFCHQWSSYPRTFGAGTKLELK", "notes": "Commercial antibody (Creative Biolabs, Cat. No TAB-453CT); also called TAB-453CT (Creative Biolabs)"}},
  "key": {"[1]": {"biological_target": "T1, Recombinant hSIRPg-His (Sino Biologicals, reference 11828-H08H) (human, UniProt Q9P1W8 29-360)", "T1 construct": "Bought recombinant protein; also called human SIRPg recombinant protein; not shown: histidine tail", "T1 sequence (Q9P1W8 29-360)": "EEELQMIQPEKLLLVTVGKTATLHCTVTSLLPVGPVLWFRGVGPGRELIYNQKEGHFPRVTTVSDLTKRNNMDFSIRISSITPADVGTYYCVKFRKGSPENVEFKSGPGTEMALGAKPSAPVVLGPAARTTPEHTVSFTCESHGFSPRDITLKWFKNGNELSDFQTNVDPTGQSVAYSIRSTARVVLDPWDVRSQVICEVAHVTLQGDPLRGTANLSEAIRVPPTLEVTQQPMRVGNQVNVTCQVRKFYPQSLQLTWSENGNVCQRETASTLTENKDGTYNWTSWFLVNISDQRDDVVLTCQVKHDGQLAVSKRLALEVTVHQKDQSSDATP", "experiment": "Blitz, hSIRPg-His on Ni-NTA biosensor", "procedure": "This method was performed with a Blitz (Forté Bio; USA; reference C22-2 No 61010-1). Recombinant hSIRPg-His (Sino Biologicals, Beijing, China; reference 11828-H08H) was immobilized at 10 μg/ml by histidine tail into a Ni-NTA biosensor (Forte Bio; USA; reference 18-0029) for 30 seconds. Then, an antibody was associated at 20 μg/mL for 120 seconds. The dissociation of antibody was made in kinetics buffer for 120 seconds. Analysis of data was made with the Blitz pro 1.2 software, which calculated association constant (ka) and dissociation constant (kd) and determined the affinity constant KD […]."}, "[2]": {"biological_target": "T2, SIRPa variant 1 on human monocytes (homozygote v1/v1) (human, UniProt P78324 31-504)", "T2 construct": "the target on the cells is SIRPa v1; also called human monocytes v1/v1; SIRPa v1", "T2 sequence (P78324 31-504 limits assumed, change not shown)": "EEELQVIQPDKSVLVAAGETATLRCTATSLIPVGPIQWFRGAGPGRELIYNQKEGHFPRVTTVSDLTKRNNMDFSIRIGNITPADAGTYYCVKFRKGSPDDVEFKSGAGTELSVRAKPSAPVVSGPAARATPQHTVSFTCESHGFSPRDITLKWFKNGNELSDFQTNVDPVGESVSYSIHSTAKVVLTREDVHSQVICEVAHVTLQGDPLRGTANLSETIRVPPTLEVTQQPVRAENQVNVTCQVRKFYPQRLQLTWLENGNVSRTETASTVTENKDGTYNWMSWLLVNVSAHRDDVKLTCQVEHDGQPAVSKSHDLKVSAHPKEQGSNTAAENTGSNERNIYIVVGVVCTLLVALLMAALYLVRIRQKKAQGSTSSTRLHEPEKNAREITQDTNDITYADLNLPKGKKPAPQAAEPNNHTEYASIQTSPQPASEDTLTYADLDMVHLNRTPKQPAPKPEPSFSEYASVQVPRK", "experiment": "flow cytometry on human monocytes (SIRPa v1/v1)", "procedure": "FIG. 7. Binding analysis of antibodies on human monocytes (homozygote for SIRPa variant 1 (v1/v1)). […] Revelation was performed with a PE labeled mouse anti-human Fc mAb on CantoII cytometer, values corresponding to percentage of stained monocytes."}},
  "data": [
    {"binder": "B1", "values": [
      {"measurement": "binding result", "setting": "[1]", "result": "binds"},
      {"measurement": "binding result", "setting": "[2]", "result": "binds"}
    ]}
  ]
}
